Data on 1 substance can be found in patent publication US20070054271A1.

Assay [1] deals with putative CXCL14 receptor (CXCL14-binding cell surface protein(s)) on breast epithelial and breast cancer cells. As to the kind of experiment: Scatchard analysis of AP-CXCL14 binding to MDA-MB-231 cells in suspension, bound AP activity; low affinity site.
For assay [2] the target is unchanged. As to the kind of experiment: Scatchard analysis of AP-CXCL14 binding to MDA-MB-231 cells in suspension, bound AP activity; high affinity site.

The Kd is the constant that tells how readily two partners part at equilibrium. Lower therefore signals higher affinity. For the substance “alkaline phosphatase-CXCL14 (AP-CXCL14) fusion protein, AP located N-terminal of the CXCL14 (from UniProt O95715 35-111) (ligand)”, the equilibrium dissociation constant (Kd) in assay [1] came to 567 nM; in assay [2], 61 nM.
